Columns and labels:
c-Abl (mouse) = test: phosphorylation enrichment, bacterial display (enrichment ratio); higher = better substrate or ligand; peptides without Tyr show the background
FGFR1 = FGFR1 (UniProt P11362); test: as above
Hck = Hck (UniProt P08631); test: as above
AncSZ = test: as above
Fyn = Fyn (UniProt P06241); test: as above
EPHB2 = EPHB2 (UniProt P29323); test: as above
Fer (mouse) = test: as above
Jak2 = Jak2 (UniProt O60674); test: as above
EPHB1 = EPHB1 (UniProt P54762); test: as above
Chain of EPHB1 (P54762 whole entry, looked up): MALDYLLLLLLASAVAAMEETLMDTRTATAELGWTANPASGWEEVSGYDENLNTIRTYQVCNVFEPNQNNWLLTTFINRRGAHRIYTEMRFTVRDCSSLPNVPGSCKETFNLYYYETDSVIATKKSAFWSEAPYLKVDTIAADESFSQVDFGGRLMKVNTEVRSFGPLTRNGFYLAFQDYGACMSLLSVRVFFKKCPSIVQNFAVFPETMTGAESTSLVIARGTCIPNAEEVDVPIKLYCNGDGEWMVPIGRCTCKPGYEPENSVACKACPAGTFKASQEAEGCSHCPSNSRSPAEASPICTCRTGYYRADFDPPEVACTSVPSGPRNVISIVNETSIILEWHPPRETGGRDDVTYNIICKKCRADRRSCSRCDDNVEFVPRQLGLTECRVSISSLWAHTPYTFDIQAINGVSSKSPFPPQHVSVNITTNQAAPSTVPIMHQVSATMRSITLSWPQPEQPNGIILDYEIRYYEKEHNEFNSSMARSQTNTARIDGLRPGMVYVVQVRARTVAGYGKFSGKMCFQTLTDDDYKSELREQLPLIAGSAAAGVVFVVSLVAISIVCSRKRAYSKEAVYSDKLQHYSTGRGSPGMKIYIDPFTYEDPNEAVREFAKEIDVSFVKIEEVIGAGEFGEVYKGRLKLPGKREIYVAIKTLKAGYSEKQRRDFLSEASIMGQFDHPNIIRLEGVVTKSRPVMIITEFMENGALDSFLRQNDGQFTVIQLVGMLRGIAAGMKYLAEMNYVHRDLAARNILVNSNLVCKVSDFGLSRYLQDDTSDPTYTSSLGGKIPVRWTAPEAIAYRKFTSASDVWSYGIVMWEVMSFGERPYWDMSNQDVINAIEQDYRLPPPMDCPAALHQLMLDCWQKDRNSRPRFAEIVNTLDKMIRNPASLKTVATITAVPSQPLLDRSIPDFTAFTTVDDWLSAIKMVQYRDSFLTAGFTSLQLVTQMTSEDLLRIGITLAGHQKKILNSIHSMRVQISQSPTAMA

MERTK = MERTK (UniProt Q12866); test: as above
Chain of MERTK (Q12866 whole entry, looked up): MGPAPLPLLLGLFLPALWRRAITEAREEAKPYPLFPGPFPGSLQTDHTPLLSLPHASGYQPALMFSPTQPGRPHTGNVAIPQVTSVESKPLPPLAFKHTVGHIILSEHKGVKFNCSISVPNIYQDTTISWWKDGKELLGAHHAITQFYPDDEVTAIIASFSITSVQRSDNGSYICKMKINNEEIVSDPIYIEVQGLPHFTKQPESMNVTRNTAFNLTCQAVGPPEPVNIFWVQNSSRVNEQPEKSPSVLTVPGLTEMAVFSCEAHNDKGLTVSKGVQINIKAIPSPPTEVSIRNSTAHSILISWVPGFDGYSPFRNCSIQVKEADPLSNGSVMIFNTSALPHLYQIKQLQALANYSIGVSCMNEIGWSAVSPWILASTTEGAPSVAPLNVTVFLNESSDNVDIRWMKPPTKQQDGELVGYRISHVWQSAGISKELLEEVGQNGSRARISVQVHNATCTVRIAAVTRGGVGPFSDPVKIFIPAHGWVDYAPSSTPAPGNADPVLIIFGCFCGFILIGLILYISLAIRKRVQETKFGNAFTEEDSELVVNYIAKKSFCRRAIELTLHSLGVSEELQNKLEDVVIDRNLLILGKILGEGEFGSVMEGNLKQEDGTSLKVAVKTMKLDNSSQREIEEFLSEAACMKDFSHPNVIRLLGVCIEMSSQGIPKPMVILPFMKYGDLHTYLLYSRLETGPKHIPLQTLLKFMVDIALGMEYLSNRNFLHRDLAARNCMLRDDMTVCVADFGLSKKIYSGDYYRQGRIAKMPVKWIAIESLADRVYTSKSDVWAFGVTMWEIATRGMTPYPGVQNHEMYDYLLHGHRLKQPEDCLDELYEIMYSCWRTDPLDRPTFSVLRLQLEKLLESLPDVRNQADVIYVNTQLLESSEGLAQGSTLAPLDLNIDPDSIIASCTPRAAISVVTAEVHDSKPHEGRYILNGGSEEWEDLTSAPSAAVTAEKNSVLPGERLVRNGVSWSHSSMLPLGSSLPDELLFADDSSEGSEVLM

c-Src = test: as above
Fes = Fes (UniProt P07332); test: as above
FGFR3 = FGFR3 (UniProt P22607); test: as above
Chain of FGFR3 (P22607 whole entry, looked up): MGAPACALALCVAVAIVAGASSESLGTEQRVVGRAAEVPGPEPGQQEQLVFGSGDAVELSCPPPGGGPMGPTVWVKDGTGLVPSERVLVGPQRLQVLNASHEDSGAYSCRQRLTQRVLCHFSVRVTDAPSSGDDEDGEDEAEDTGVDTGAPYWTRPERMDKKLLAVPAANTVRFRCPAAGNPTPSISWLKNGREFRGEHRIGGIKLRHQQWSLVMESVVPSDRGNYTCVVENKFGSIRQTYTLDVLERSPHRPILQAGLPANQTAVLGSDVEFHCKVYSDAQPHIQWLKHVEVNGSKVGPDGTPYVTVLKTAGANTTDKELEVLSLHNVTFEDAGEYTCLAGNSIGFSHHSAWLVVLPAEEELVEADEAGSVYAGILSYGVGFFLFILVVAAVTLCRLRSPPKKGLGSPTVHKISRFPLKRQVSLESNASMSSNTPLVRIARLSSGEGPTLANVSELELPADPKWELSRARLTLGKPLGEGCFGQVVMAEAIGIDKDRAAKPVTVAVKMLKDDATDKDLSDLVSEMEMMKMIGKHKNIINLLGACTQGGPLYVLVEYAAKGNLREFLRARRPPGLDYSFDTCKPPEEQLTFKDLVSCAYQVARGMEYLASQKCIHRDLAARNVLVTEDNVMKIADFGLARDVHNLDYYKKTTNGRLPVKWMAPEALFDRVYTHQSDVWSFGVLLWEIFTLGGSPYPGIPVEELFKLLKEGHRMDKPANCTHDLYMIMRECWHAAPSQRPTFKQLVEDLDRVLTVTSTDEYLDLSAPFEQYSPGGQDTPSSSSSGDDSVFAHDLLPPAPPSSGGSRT

Grb2 SH2 = Grb2 SH2 (UniProt P62993); test: SH2 binding enrichment of the phosphorylated peptide, bacterial display (enrichment ratio); higher = better substrate or ligand; peptides without Tyr show the background
SHP2-C SH2 = test: as above
c-Src SH2 = test: as above
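For SH2 binding enrichment of the phosphorylated peptide, bacterial display in this document: peptide library displayed on the E. coli surface as eCPX fusions, selected cells deep-sequenced, score is each peptide's frequency after selection divided by its frequency in the input.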
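For phosphorylation enrichment, bacterial display in this document: 11-residue human phosphosite peptides and single-mutation variants displayed on the E. coli surface, counted by deep sequencing, each peptide's frequency after selection divided by its frequency in the unselected input library; frequency after pTyr selection over input frequency; kinase dosed for 20-30% of maximal phosphorylation in three min.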

Chain of Hck (P08631 whole entry, looked up): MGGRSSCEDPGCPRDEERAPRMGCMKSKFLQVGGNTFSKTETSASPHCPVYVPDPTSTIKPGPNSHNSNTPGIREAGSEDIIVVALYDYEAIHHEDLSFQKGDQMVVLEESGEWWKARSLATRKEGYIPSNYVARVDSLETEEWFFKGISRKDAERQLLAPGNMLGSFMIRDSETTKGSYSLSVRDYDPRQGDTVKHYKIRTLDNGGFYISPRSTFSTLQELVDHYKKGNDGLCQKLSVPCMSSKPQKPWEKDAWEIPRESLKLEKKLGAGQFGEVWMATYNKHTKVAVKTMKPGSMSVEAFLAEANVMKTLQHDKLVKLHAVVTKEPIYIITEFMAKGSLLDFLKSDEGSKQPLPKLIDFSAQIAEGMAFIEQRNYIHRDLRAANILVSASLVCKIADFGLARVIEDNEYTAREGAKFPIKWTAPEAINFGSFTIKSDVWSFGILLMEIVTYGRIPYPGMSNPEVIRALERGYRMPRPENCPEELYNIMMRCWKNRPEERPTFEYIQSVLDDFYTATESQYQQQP
Chain of Fyn (P06241 whole entry, looked up): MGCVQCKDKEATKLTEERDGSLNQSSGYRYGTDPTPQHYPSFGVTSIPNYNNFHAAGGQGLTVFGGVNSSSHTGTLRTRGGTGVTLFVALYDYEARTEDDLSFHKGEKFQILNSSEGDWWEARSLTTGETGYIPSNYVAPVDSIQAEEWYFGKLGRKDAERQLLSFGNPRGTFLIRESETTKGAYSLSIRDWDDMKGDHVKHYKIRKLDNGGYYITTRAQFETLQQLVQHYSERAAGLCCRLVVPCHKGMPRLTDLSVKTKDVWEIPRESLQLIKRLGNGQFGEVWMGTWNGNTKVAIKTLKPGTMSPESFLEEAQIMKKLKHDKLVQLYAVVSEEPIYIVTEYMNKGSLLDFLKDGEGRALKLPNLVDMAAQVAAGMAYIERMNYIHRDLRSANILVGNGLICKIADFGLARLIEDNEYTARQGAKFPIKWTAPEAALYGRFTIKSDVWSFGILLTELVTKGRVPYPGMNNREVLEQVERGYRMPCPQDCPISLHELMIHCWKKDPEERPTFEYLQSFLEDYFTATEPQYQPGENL
Chain of Jak2 (O60674 whole entry, looked up): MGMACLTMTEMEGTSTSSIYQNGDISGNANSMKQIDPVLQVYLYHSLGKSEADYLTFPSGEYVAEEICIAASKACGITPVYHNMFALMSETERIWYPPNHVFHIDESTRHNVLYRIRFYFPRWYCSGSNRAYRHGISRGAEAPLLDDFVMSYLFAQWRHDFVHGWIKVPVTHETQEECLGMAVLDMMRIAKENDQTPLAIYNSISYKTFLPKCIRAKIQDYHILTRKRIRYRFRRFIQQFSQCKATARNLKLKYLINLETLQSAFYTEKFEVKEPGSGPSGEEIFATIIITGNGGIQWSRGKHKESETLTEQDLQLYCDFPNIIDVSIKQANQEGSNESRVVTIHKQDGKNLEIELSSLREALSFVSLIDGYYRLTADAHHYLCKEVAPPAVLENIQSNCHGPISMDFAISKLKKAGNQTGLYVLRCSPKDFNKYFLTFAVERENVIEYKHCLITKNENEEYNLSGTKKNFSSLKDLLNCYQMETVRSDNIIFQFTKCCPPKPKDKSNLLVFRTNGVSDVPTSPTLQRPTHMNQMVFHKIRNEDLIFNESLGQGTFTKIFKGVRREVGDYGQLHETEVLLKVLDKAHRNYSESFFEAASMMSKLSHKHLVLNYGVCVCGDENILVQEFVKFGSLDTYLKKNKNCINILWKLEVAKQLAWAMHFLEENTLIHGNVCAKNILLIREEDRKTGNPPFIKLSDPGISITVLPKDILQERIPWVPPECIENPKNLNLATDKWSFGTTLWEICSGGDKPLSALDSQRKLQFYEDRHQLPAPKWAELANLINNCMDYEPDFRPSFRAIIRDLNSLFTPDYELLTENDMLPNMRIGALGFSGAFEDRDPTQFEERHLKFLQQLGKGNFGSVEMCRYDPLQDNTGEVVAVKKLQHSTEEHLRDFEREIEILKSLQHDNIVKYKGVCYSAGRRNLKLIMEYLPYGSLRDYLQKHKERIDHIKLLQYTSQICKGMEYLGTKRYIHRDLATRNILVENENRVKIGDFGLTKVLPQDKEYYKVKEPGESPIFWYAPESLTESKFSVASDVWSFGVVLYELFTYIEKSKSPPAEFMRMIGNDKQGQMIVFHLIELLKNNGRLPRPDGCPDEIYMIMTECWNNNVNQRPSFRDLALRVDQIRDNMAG

Row | Sequence | phosphorylation enrichment (c-Abl (mouse)) | phosphorylation enrichment (FGFR1) | phosphorylation enrichment (Hck) | phosphorylation enrichment (AncSZ) | phosphorylation enrichment (Fyn) | phosphorylation enrichment (EPHB2) | phosphorylation enrichment (Fer (mouse)) | phosphorylation enrichment (Jak2) | phosphorylation enrichment (EPHB1) | phosphorylation enrichment (MERTK) | phosphorylation enrichment (c-Src) | phosphorylation enrichment (Fes) | phosphorylation enrichment (FGFR3) | SH2 binding enrichment (Grb2 SH2) | SH2 binding enrichment (SHP2-C SH2) | SH2 binding enrichment (c-Src SH2)
1 | MNKNAYHNVTT [ST3GAL6_Y306_A311T] | 0.525 | 0.358 | 0.385 | 0.497 | 0.34 | 0.352 | 0.322 | 0.434 | 0.358 | 0.412 | 0.364 | 0.426 | 0.495 | 4.43 | 0.706 | 2.21
2 | MPLTEYLKQIK [CNGB3_Y200_R203Q] | 0.844 | 0.533 | 0.514 | 0.83 | 0.448 | 0.511 | 0.451 | 0.749 | 0.572 | 0.459 | 0.582 | 0.995 | 0.526 | 0.534 | 0.651 | 0.364
3 | MTYMFYRENLR [NLRP14_Y443_V441M] | 0.751 | 0.628 | 1.97 | 1.33 | 1.48 | 1 | 0.456 | 1.1 | 0.948 | 0.608 | 2.72 | 1.19 | 0.753 | 1.15 | 0.749 | 0.721
4 | MYVKSYTIHYS [F5_Y2153] | 0.674 | 0.542 | 0.516 | 1.03 | 0.492 | 0.732 | 0.508 | 0.86 | 0.723 | 0.446 | 0.425 | 1.17 | 0.815 | 0.666 | 0.826 | 0.443
5 | NAPNSYGRRPT [CDKN2A_Y44_I49T] | 0.79 | 0.343 | 0.424 | 0.784 | 0.402 | 0.281 | 0.38 | 1.11 | 0.452 | 0.593 | 0.528 | 0.717 | 0.499 | 0.599 | 0.615 | 0.567
6 | NDHHVYLEGTL [ALDOB_Y223] | 0.555 | 0.494 | 0.53 | 0.718 | 0.468 | 0.509 | 0.46 | 0.662 | 0.494 | 0.435 | 0.421 | 0.756 | 0.578 | 0.995 | 0.646 | 1.72
7 | NELTFYCCKKD [CD59_Y87_YF] | 0.808 | 0.54 | 0.46 | 1.39 | 0.452 | 0.739 | 0.461 | 1.29 | 0.514 | 0.466 | 0.436 | 1.28 | 0.715 | 0.938 | 0.707 | 0.503
8 | NELTFYCFKKD [CD59_Y87_C89Y_YF] | 0.758 | 0.456 | 0.448 | 0.96 | 0.412 | 0.492 | 0.591 | 1.12 | 0.541 | 0.381 | 0.35 | 1.22 | 0.614 | 0.754 | 0.504 | 0.404
9 | NFRTTCVNANE [KCNH2_Y475_Y475C] | 0.808 | 0.528 | 0.483 | 0.974 | 0.53 | 0.605 | 0.464 | 0.979 | 0.53 | 0.423 | 0.428 | 0.955 | 0.619 | 0.723 | 0.536 | 0.387
10 | NGSKGYAYVHF [PABPC5_Y147] | 0.707 | 0.736 | 0.499 | 1.08 | 0.493 | 0.61 | 0.516 | 0.961 | 0.553 | 0.519 | 0.456 | 0.904 | 0.718 | 0.826 | 19.3 | 12.1
11 | NGVSYYINLCQ [IGF2R_Y2025] | 0.916 | 0.525 | 0.581 | 1.19 | 0.449 | 0.548 | 0.548 | 1.38 | 0.787 | 0.417 | 0.374 | 1.38 | 1.04 | 0.717 | 0.488 | 0.466
12 | NHFKICNLCAE [PTEN_Y68_Y68C_YF] | 0.75 | 0.401 | 0.413 | 0.609 | 0.415 | 0.468 | 0.4 | 0.682 | 0.461 | 0.484 | 0.486 | 0.687 | 0.544 | 1.33 | 1.4 | 1.11
13 | NHRNQYQALKT [CLSPN_Y887_P892T] | 0.753 | 0.503 | 0.506 | 0.536 | 0.451 | 0.43 | 0.499 | 0.48 | 0.422 | 0.4 | 0.364 | 0.656 | 0.439 | 0.994 | 1 | 1.17
14 | NKPTVYGVSPN [ABL1_Y226] | 0.67 | 0.376 | 0.603 | 0.547 | 0.55 | 0.373 | 0.443 | 0.478 | 0.399 | 0.395 | 0.659 | 0.623 | 0.446 | 0.899 | 0.523 | 0.501
15 | NLMPAYYKCIQ [CYP21A2_Y190] | 1.24 | 0.57 | 0.507 | 1.09 | 0.432 | 0.496 | 0.626 | 1.34 | 0.708 | 0.57 | 0.51 | 1.28 | 0.866 | 0.596 | 0.444 | 0.522
